experiment: soluble on expression in E. coli; label from the status in PepcDB or PDB records

Sequence	soluble on expression in E. coli
ACTKNAIAQTGFNKDKYFNGDVWYVTDYLDLEPDDVPKRYCAALAAGTASGKLKEALYHYDPKTQDTFYDVSELQVESLGKYTANFKKVDKNGNVKVAVTAGNYYTFTVMYADDSSALIHTCLHKGNKDLGDLYAVLNRNKDAAAGDKVKSAVSAATLEFSKFISTKENNCAYDNDSLKSLLTK	soluble
GSHMNTLKKAFEILDFIVKNPGDVSVSEIAEKFNMSVSNAYKYMVVLEEKGFVLRKKDKRYVPGYKLIEYGSFVLRRFNIRDIAHDHLVDIMKRTGETVHLILKDGFEGVYIDKVEGEQSIPMVSRLGMKVDLYSTASGKSILAFVPEKELKEYLKIVELKPKTPNTITNPRVLKRELEKIRKRGYAVDNEENEIGIMCVGVPIFDHNGYPVAGVSISGVARKFTEEKIEEYSDVLKEKAEEISRKLGY	soluble
MGSDKIHHHHHHMSLLDKLRELGISENLIKEIEKFRSQYPVDKEYESRIPVPTQFYYGSDVWEQAITAVLCGENLLLVGEKATGKNLFAENLAGVFNRPRWDVSFHVNMDAASLIGTDTFSAGEVTFRPGPVYTAAKTGGFAVLDEINMAKSEAMAVLHATLDFRRTIDVPGYDRLSLHPATRFIATMNYGYAGTKELNEALVSRFAVIRMPMISKESLVKLIKEHYPTIREAGANELAEVFLELHTKCKNGEISSKALDLRGLIGSIGMMEKGLNIYAALDMGITNKSFDEYEQTLIRDTIRARISRKMSREQLFC	not soluble
PSTAAWFNAREQAKLVDLYDSKIENATPLSAEQLLELAHRYNDRLTVGAALDPWANVPRGAGKEDGDGMAYKDQLRVDRTDVMARIRIPSIKVDLPIYHGTSDNTLKKGAGHLEGTSLPVGGPRTHSVITAHRGLAEATMFTNLNKVGVGDRFTIEVMGEVLTYEVRETRVVSPEDTRFLQTQDDRDLVTLVTCTPLGINTHRILVTAERITPTPQSDIDAARQASQIGFP	not soluble
MACCLSEEAREQKRINQEIEKQLQRDKRNARRELKLLLLGTGESGKSTFIKQMRIIHGQGYSEEDKRAHIRLVYQNVFMAIQSMIRAMDTLDIKFGNESEELQEKAAVVREVDFESVTSFEEPYVSYIKELWEDSGIQECYDRRREYQLTDSAKYYLSDLRRLAVPDYLPTEQDILRVRVPTTGIIEYPFDLEQIIFRMVDVGGQRSERRKWIHCFENVTSIMFLVALSEYDQVLVECDNENRMEESKALFRTIITYPWFTNSSVILFLNKKDLLEEKILYSHLADYFPEYDGPPRDPIAAREFILKMFVDLNPDADKIIYSHFTCATDTENIRFVFAAVKDTILQHNLKEYNLV	not soluble
MGSDKIHHHHHHMKKTYLFSPGPVMVTDKVRNSLLHYDICHRGNEFMNLFKDTQQKINKLYNATSNYYSLIVSGSGTSVNECVLSSIFDKEDAVLLVSNGVFGERLEEILSTYNVKTYKPNFEWAEYPDLDILEKYIIENSDIKVIAMVFHETSSGMINPVPELGKLAKKYNKIFFVDAISASAGEYIDVEEFNIDIITGVGGKALGAFPGSAYLCAKESILQNIKENQCKNVYLNLYKHYKVAKSSSQTPNTPNVTLIFALNEALTEFLEDDSKIERYKECSAILRNGMEELGLTFLLPDKYMSNTVTSVFLPKEINVNEFILGLERESGYVVYPGKGKFLDANIFQVANMGEIYPEDCYKFLDILKSKLEIKKVI	not soluble
CGVFGIWGHEEAPQITYYGLHSLQHRGQEGAGIVATDGEKLTAHKGQGLITEVFQNGELSKVKGKGAIGHVRYATAGGGGYENVQPLLFRSQNNGSLALAHNGNLVNATQLKQQLENQGSIFQTSSDTEVLAHLIKRSGHFTLKDQIKNSLSMLKGAYAFLIMTETEMIVALDPNGLRPLSIGMMGDAYVVASETCAFDVVGATYLREVEPGEMLIINDEGMKSERFSMNINRSICSMEYIYFSRPDSNIDGINVHSARKNLGKMLAQESAVEADVVTGVPDSSISAAIGYAEATGIPYELGLIKNRYVGRTFIQPSQALREQGVRMKLSAVRGVVEGKRVVMVDDSIVRGTTSRRIVTMLREAGATEVHVKISSPPIAHPCFYGIDTSTHEELIASSHSVEEIRQEIGADTLSFLSVEGLLKGIGRKYDDSNCGQCLACFTGKYPTEIYQDTVLPHVK	soluble
MSWQNQGMQALIPVINRVQDAFSQLGTSVSFELPQIAVVGGQSAGKSSVLENFVGKDFLPRGSGIVTRRPLILQLIQDRNEYAEFLHKKGHRFVDFDAVRKEIEDETDRVTGQNKGISPHPINLRVFSPNVLNLTLIDLPGLTKVPVGDQPADIEQQIRDMILTFINRETCLILAVTPANSDLATSDALKLAKEVDPQGLRTIGVLTKLDLMDEGTDAREILENKLFTLRRGYVGVVNRGQKDIVGRKDIRAALDAERKFFISHPSYRHMADRLGTSYLQHTLNQQLTNHIRDTLPTLRDSLQKKMFAMEKDVAEYKNYQPNDPGRKTKALLQMVTQFNADIERSIEGSSAKLVSTNELSGGARINRLFHERFPFEIVKMEIDEKEMRKEIQYAIRNIHGIRVGLFTPDMAFEAIAKKQITRLKEPSLKCVDLVVNELANVIRQCADTMARYPRLRDELERIVVSHMREREQIAKQQIGLIVDYELAYMNTNHEDFIGFSNAEAKASQGQSAKKNLGNQVIRKGWLSLSNVSFVRGSKDNWFVLMSDSLSWYKDDEEKEKKYMLPLDGVKLKDIEGGFMSRNHKFALFYPDGKNIYKDYKQLELGCTNLDEIDAWKASFLRAGVYPEKQKAQEDESQQEMEDTSIDPQLERQVETIRNLVDSYMRIITKTIKDLVPKAVMHLIVNQTGEFMKDELLAHLYQCGDTDALMEESQIEAQKREEMLRMYHACKEALRIISEVNMSTLGDQPPPLPMSDYRPHPSGPSPVPRPAPAPPGGRQAPMPPRGGPGAPPPPGMRPPPGAPGGGGGMYPPLIPTRVPTPSNGAPEIPARPQVPKRPF	not soluble
MIDMFHINIPFKKDVIIEMGDCGFVDFAKLAEKTELKIACGNVEFSVVNDQKKVRTDDLYHPWSTIPSSYTDIACKVFDAEPRANVFWGYLQLKASPAKVMQGHNVYGSEDFRLCVEYLLDSLQKAQPELWELLDVGLAEMTRIDCTYSIKCANPDILRQTIKQMGNVSNRYIKPARNSDFETTLYFNRATKANPGAGRSFELCIYTKHDEIAHQLADLKRRARQGDSDRFNRIIDELSKPELQAFAANRLRFEGRAKKRFIQKHVGSANLWQVIRHAEQFEAKNGYRFCEWMFKTLFHDLLESLKGEELELYNDSKIKQLLRDAYSTMTPKGNISYAKADRLFRFYMTLCDRGYQELKAHSSKATLHRNMRDLMAIGFSKADLQNLSEGERMPLAQVLNFNFDNQRPANYVEPVSPTALEHHHHHH	not soluble
MGRARDAILDALENLTAEELKKFKLQAATHQGSGAAPAGIQAPPQSAAKPGLHFIDQHRAALIARVTNVEWLLDALYGKVLTDEQYQAVRAEPTNPSKMRKLFSFTPAWNWTCKDLLLQALRESQSYLVEDLERS	soluble
MAHHHHHHMRVLSLLSALCLVSTCRGHRNLFARNNYLQYLRSQNFMQEKPKFQKLNQNYSEDLNEFDNYEDDELDAENVEATSKERVTQKSGTSSSSSENKLEFKNIEKELNNMGEILHEEKDNLLLMGGGRECSVSDKGTLDVSLNSGDIFNLTKYTVEMSSSGILIRDTQNSNVVKEIAFDTVKLPIETIEETRECWKIRSHKETFLFCERSKEARDRWITNMLKALFCYNTNNLTIDEGVQTGLSSKVDIPKESTVDARIAASLKDEPNGSGDNSSHGRAKRKGNNNITISNLKNDKPEIVVN	not soluble
MGSDKIHHHHHHMKKSKHISQSELESYLWGAATLLRGYIDAGDYKQFIFPLLFYKRLCDVYDEELADALEESGGDQEYAALPEQHRFQIPEDAHWKATRTKVKNVGKAIQDALRAIETANPDTLYGVFGDAQWTNKDRLPDRMLRELIEHFSSQTLSLSNCPEDELGVGYEFLIKKFADDSGHTAAEFYTNRTVVHLMTEMLEPKPGESIYDPTCGSAGMLLSAVAHLKRQNKEWRNLRLFGQERNLLTSAIGRMNLFLHGIEDFRIVRGDTLANPAFVEGDRLMQFDVVLANPPYSIKQWDRDAWSADPWGRNIYGTPPQGRADYAFWQHIIKSMKAKSGRCAILFPHGVLFRNEESAMREKLVAHDVVECVLGLGPNLFYNSPMEACVVICRMNKPKERRNKVLFINAVNEVTRERAQSFLTDDHIQRIVAAYQAFGDEDGFARVVGNDEIREKASNLSIPLYVRAENGNGNGNGSTETVSLKQAIANWQESSMALRESMDGLLSSLEGGLHGS	not soluble
